Measurements taken from PMC2757928.

Columns and labels:
[1] = biological target: IRF5 (222-467) S425D (human); experiment: ITC
[2] = biological target: IRF5 (222-467) S421D (human); experiment: ITC
[3] = biological target: IRF5 (222-467) S457D (human); experiment: ITC
[4] = biological target: IRF5 (222-467) S427D (human); experiment: ITC
[5] = biological target: IRF5 (222-467) S436D (human); experiment: ITC
[6] = biological target: IRF5 (residues 222-467) (human); experiment: ITC
[7] = biological target: IRF5 (222-467) S430D (human); experiment: ITC
[8] = biological target: IRF5 (222-467) S430D (human); experiment: AUC

## CBP (residues 2067-2112) (from UniProt Q92793 2067-2112) (domain or fragment)
[1]
  Kd: 710 nM
  dH: -13.3 kcal/mol
  stoichiometry N: 1.04
[2]
  Kd: 2280 nM
  dH: -6.4 kcal/mol
  stoichiometry N: 1.03
[3]
  Kd: 2410 nM
  dH: -10.3 kcal/mol
  stoichiometry N: 1.08
[4]
  Kd: 960 nM
  dH: -12.9 kcal/mol
  stoichiometry N: 0.98
[5]
  Kd: 670 nM
  dH: -6.8 kcal/mol
  stoichiometry N: 1.07
[6]
  Kd: 1640 nM
  dH: -14.4 kcal/mol
  stoichiometry N: 1.05
[7]
  Kd: 560 nM
  dH: -15.2 kcal/mol
  stoichiometry N: 1.02

## IRF5 (222-467) S430D (domain or fragment)
[8]
  stoichiometry N: 2
